According to article PMC11479942, “XPD stalled on cross-linked DNA provides insight into damage verification”:

What was measured:
[1] = target: super-unplugged XPD variant (Chaetomium thermophilum)
XPD wild type (ctXPD) = target: T1, XPD wild type (ctXPD) (Chaetomium thermophilum (paper: C. …, UniProt G0RZH0 1-780)); assay: fluorescence anisotropy; 5 mM MgCl2, no nucleotide; Fluorescence anisotropy: 20 mM HEPES pH 7.5, 50 mM KCl, 5 mM MgCl2, 1 mM TCEP, 5 nM DNA, room temperature; cryo-EM: same buffer, 10 uM complex, DNA 1.25:1, 5 mM ATP; details: protein: recombinant; tags: N-terminal 6xHis, TEV site (pBADM-11); label: 5' Cy3; hairpin with 5' overhang
T1 sequence: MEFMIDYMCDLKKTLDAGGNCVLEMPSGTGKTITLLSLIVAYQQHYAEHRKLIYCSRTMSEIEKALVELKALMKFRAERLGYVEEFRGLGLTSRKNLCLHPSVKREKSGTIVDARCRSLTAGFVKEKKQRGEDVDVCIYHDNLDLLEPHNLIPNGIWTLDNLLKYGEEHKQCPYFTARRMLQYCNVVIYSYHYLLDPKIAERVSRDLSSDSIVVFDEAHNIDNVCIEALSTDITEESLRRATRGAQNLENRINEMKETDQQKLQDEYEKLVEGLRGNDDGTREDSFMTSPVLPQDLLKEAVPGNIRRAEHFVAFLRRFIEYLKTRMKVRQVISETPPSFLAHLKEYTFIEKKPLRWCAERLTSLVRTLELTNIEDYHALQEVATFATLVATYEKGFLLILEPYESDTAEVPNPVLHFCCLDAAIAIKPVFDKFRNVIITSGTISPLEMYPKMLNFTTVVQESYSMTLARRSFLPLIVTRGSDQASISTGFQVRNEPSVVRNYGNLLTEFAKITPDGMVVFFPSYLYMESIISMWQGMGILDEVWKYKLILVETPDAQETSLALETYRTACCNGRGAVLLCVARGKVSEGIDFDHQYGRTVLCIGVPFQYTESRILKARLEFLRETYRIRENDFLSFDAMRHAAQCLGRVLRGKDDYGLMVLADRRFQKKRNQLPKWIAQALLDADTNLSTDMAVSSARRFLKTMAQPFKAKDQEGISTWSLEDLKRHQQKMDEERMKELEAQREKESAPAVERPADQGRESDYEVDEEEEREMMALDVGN

Molecule: XPG D924A from Chaetomium thermophilum (enzyme)
- XPD helicase activity (fluorescence-based, Y-forked DNA 250 nM, XPD–p44 250 nM) with equimolar XPG D924A (250 nM); inhibition by XPG D924A [1]: 6 fold

B1: 5' overhang self-annealing hairpin (structured_DNA)
DNA: TTTTTTTTTTTTTTTCCCGGCCATGCGAAGCATGGCCGTT
- Kd (XPD wild type (ctXPD)): 30 nM
